Key:
Format in all cases: cell-based
glucagon receptor (GCGR) = molecular target: T1, glucagon receptor (GCGR) (Homo sapiens, UniProt P47871); experiment: BRET assay of βarrestin1 construct recruitment to GCGR; settings: GCGR activation with glucagon
T1 construct: expressed in transfected cells; host or cells: HEK-293T
Source text: The bar graph summarizes the BRET ratio corresponding to the recruitment of βarrestin1 or βarrestin1-SUMO1 fusion protein to the GCGR with or without glucagon (GCGR agonist) stimulation, as described in Example 1 herein.
(§1) BRET assays. […] Titration assays were first completed, which allowed determination of the specificity of association among different interaction partners. See Nagi and Shenoy. 2019, supra; Gales et al. 2005. Nature methods 2:177-184; Nagi et al. 2015. Cellular and molecular life sciences: CMLS 72:3543-3557; Audet and Pineyro. 2011. Methods in molecular biology 756:149-163; and Rebois et al. 2006. Journal of cell science 119:2807-2818. […] BRET readings were acquired using Synergy Neo2 plate reader and obtained 5 min after manual addition of Rluc substrate, coelenterazine h (Promega) to a final concentration of 5 μM.
(§2) The BRET signal generated was determined by calculating the ratio of light emitted by YFP (520-550 nm) over the light emitted by Rluc (440-480 nm). These values were then corrected by subtracting the background signal (detected when the Rluc-tagged construct was expressed without acceptor) from the BRET signal detected in cells co-expressing both donor and acceptor constructs. Agonist-induced BRET values were calculated by subtracting net BRET values of non-stimulated conditions from net BRET values corresponding to the stimulated conditions.

β2AR [1] = molecular target: T2, β2AR (Homo sapiens, UniProt P07550); experiment: BRET assay of βarrestin1 construct recruitment to β2AR; settings: with or without isoproterenol stimulation
T2 construct: Flag (N); expressed in transfected cells
Source text: The bar graph summarizes the BRET ratio corresponding to the recruitment of βarrestin1 or βarrestin1-SUMO1 fusion protein to the β2AR with or without isoproterenol (β2AR agonist) stimulation, as described in Example 1 herein.
as §1, §2

β2AR [2] = molecular target: T2, β2AR; experiment: Confocal trafficking and colocalization with β2AR
Experimental: (§3) Immunostaining and confocal microscopy. […] Twenty-four hours post-transfection, cells were serum-starved for 4 h, and either left untreated or treated with respective agonists for the indicated times in the Figure descriptions. After stimulation, cells were fixed with 5% formaldehyde diluted in phosphate-buffered saline (PBS), permeabilized with 0.1% Triton in PBS containing 2% bovine serum albumin for 20 min and incubated at room temperature with appropriate primary antibody. The next day, cells were washed three times with PBS and incubated with Alexa594 conjugated secondary antibody for 1 h, followed by repeated washes using PBS. Confocal images were acquired using Zeiss LSM510 laser-scanning microscope using multitrack sequential with excitation (488 and 568 nm) and emission (BP 505-550 nm and LP 585 nm) filter sets. Images (1024×1024 pixels) were collected using either a 63× or 100× oil immersion lens. Images were processed for Figure presentation using Adobe Photoshop software, and any increase or decrease of brightness/contrast was applied to the entire image. The nuclear rim localization of YFP-βarrestin2-SUMO1 is readily visualized in cells with low to moderate expression of YFP-protein. In cells with high expression, this localization is present, and can be discerned by enlarging sections of the nuclear rim.
For βarrestin2-SUMO1, plasma membrane translocation was detected upon β2AR agonist activation, and, intriguingly, βarrestin2-SUMO1 was detected in endocytic vesicles. […] Confocal images were taken of cells stably expressing the β2AR and transiently expressing YFP-SUMO1 (data not shown). In both quiescent and agonist-treated cells, the SUMO1 protein remained in the nucleus. […] See Shenoy et al. 2007, supra; Shenoy and Lefkowitz. 2005. J Biol Chem 280:15315-15324; and Shenoy and Lefkowitz. 2003. J Biol Chem 278:14498-14506. Therefore, the endosomal trafficking was compared for βarrestin2-ubiquitin (βarrestin2-Ub) fusion protein and internalized β2ARs. […]

[3] = molecular target: T3, D1 dopamine receptor (D1R) (Homo sapiens, UniProt P21728); experiment: Confocal trafficking and colocalization with D1R; settings: HEK-293 cells with stable D1R expression; dopamine 15 minutes
T3 construct: expressed in transfected cells
T3 sequence (P21728 whole entry): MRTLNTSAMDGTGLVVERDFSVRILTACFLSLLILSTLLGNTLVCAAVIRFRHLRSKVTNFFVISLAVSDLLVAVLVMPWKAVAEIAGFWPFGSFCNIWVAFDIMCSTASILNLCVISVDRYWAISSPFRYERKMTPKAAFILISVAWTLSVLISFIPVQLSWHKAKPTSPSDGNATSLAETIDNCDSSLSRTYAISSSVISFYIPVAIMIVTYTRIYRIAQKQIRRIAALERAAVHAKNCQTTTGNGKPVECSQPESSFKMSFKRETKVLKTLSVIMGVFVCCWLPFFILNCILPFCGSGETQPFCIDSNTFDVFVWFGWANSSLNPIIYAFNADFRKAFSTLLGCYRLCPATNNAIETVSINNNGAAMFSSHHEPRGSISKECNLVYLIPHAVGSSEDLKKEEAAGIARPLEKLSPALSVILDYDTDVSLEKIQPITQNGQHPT
Experimental: as §3, with “rim. […]” for “rim.”

D2R = molecular target: T4, D2R (Homo sapiens, UniProt P14416); experiment: Confocal trafficking and colocalization with D2R; settings: HEK-293 cells stably expressing D2R
T4 construct: HA (N); expressed in transfected cells
T4 sequence (P14416 whole entry): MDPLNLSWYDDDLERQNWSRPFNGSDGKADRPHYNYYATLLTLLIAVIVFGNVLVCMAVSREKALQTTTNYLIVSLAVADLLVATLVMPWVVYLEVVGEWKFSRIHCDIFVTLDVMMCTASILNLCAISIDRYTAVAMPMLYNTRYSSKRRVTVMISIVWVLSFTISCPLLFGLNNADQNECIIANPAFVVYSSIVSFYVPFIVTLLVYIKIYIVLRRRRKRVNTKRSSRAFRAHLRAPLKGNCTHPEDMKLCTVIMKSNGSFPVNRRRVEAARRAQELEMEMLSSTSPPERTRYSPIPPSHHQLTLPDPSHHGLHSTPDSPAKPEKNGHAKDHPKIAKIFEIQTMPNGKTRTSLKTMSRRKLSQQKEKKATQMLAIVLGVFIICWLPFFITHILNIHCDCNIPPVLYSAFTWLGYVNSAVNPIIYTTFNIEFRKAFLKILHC
Experimental: as §3, with “rim. […]” for “rim.”

RanGAP1 [4] = molecular target: T5, RanGAP1 (Homo sapiens, UniProt P46060); experiment: Confocal colocalization with endogenous RanGAP1 at the nuclear envelope; settings: HEK-293 cells with or without β2AR agonist stimulation
T5 construct: endogenous in cells; host or cells: HEK-293T / HEK-293
T5 sequence (P46060 2-587 limits assumed): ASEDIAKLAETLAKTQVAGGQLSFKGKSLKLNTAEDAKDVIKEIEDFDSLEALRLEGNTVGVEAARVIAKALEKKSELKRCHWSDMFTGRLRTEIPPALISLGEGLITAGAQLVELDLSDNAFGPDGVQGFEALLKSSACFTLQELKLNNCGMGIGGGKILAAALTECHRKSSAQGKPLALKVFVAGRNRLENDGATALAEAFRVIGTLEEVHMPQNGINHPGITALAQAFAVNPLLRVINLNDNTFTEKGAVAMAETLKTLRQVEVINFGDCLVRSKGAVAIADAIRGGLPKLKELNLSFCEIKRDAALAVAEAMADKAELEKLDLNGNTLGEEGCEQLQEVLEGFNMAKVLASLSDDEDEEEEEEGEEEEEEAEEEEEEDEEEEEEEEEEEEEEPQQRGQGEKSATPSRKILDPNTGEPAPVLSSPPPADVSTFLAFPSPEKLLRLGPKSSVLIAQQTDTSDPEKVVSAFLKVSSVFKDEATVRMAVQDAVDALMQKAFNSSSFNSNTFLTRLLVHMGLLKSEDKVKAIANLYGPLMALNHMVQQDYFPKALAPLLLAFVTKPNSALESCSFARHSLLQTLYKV
T5 sequence (P63165 2-97 partner limits assumed): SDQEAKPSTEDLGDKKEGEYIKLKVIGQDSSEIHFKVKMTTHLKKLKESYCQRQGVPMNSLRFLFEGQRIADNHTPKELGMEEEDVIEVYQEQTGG
Experimental: as §3, with “rim. […]” for “rim.”

RanGAP1 [5] = experiment: Western blotting of RanGAP1 levels on βarrestin2 overexpression; settings: RanGAP1/GAPDH ratio, Western blot
Source text: HEK-293T cells stably transfected with β2AR were transfected with vector or YFP-βarrestin2. […] The unmodified RanGAP1 band (70 kDa) was divided by cognate GAPDH and plotted as a ratio. The bar graph (bottom panel) summarizes values from three independent experiments. *p=0.006, unpaired t test.
In these experiments, SUMO1 by itself is not localized at the nuclear membrane in HEK-293 cells; only βarrestin2-SUMO1 is localized at the nuclear membrane. […] It is well established that RanGAP1 is expressed in cells predominantly in the SUMOylated state. This is illustrated in immunoblots (FIGS. 9-11), in which the RanGAP1 antibody detects two bands, SUMO-RanGAP1 (approximately 90 kDa) and RanGAP1 (approximately 70 kDa).

SUMO1 = molecular target: T6, SUMO1 (Homo sapiens, UniProt P63165); experiment: SUMOylation of FLAG-βarrestin2 constructs co-expressed with His6-SUMO1 (FLAG IP, immunoblot); settings: overexpressed in HEK-293 cells along with His-SUMO1
T6 construct: His6 (N); expressed in transfected cells; host or cells: HEK-293 (transient)
T6 sequence (P63165 1-97 limits assumed): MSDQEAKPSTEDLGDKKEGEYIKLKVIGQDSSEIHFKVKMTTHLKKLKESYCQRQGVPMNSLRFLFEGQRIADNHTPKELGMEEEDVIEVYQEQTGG
Source text: HEK-293 cells were transfected with vector, FLAG-βarrestin2 (WT) or FLAG-βarrestin2-K296R along with His6-SUMO1.
SUMOylation is targeted to a canonical protein sequence (Ψ-K-X-D/E), where Ψ is an aliphatic amino acid, K is the target site for the covalent modification by SUMO, X is any amino acid and is followed by an acidic residue. See Sampson et al. 2001. J Biol Chem 276:21664-21669. […] See Wyatt et al. 2011 and Xiao et al. 2015, both supra.

T1 sequence (P47871 26-477, species assumed): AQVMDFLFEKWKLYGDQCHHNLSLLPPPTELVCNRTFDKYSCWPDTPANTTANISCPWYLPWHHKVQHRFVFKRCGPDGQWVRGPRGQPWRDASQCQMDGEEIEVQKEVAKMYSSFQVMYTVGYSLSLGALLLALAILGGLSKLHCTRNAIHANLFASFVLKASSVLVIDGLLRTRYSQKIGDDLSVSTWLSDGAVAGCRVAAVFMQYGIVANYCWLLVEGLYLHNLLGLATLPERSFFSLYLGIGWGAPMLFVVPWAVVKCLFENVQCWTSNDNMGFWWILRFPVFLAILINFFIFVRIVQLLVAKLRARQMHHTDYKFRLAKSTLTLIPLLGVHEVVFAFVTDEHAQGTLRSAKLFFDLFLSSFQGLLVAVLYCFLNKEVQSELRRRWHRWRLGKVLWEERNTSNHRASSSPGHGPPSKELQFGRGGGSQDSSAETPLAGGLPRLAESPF

Molecule: βarrestin1: wild-type rat βarrestin1 (SEQ ID NO:4), used as comparator [reference compound]
- association with GCGR by BRET (glucagon receptor (GCGR)): weak association
- association with β2AR by BRET ratio (β2AR [1]): weak association

Molecule: βarrestin1-SUMO1: rat βarrestin1 polypeptide fused to human SUMO1 (SEQ ID NO:2)
- association with GCGR by BRET (glucagon receptor (GCGR)): significantly more binding
- association with β2AR by BRET ratio (β2AR [1]): significantly more binding
- colocalization of βarrestin1 constructs with β2AR (confocal) (β2AR [2]; HEK-293 cells, isoproterenol): strong colocalization

Molecule: βarrestin2: wild-type rat βarrestin2 (SEQ ID NO:3), tagged, used as comparator [reference compound]
- colocalization / complexes with β2AR after agonist activation (confocal) (β2AR [2]; HEK-293 cells with stable β2AR expression, agonist up to 20 minutes): no colocalization was detected
- association with D1R after dopamine activation (confocal) [3]: weak association
- stability of association with activated D2R (confocal) (D2R): not stable
- colocalization with endogenous RanGAP1 at the nuclear envelope (RanGAP1 [4]): Minimal colocalization
- increase of unmodified RanGAP1 band (approximately 70 kDa) versus vector transfected cells (RanGAP1 [5]): 50%

B1: βarrestin2-K296R: rat βarrestin2 with lysine-296 of the canonical SUMOylation site mutated to arginine (protein)
chain: MGEKPGTRVFKKSSPNCKLTVYLGKRDFVDHLDKVDPVDGVVLVDPDYLKDRKVFVTLTCAFRYGREDLDVLGLSFRKDLFIATYQAFPPMPNPPRPPTRLQDRLLKKLGQHAHPFFFTIPQNLPCSVTLQPGPEDTGKACGVDFEIRAFCAKSIEEKSHKRNSVRLIIRKVQFAPETPGPQPSAETTRHFLMSDRRSLHLEASLDKELYYHGEPLNVNVHVTNNSAKTVKKIRVSVRQYADICLFSTAQYKCPVAQLEQDDQVSPSSTFCKVYTITPLLSDNREKRGLALDGQLRHEDTNLASSTIVKEGANKEVLGILVSYRVKVKLVVSRGGDVSVELPFVLMHPKPHDHITLPRPQSAPREIDIPVDTNLIEFDTNYATDDDIVFEDFARLRLKGMKDDDCDDQFC
modifications: left off: large carriers
- SUMOylation compared with rat βarrestin2 (WT) (SUMO1): significantly decreased but not eliminated

From US20230227514A1, “BETA-ARRESTIN COMPOSITIONS AND ASSOCIATED METHODS” (Duke University, priority 2020, published 2023)
